Data reported in the DeepSol protein solubility set.

Experiment: soluble on expression in E. coli; label from the status in PepcDB or PDB records

MKRLQAFKFQLRPGGQQECEMRRFAGACRFVFNRALARQNENHEAGNKYIPYGKMASWLVEWKNATETQWLKDSPSQPLQQSLKDLERAYKNFFRKRAAFPRFKKRGQNDAFRYPQGVKLDQENSRIFLPKLGWMRYRNSRQVTGVVKNVTVSQSCGKWYISIQTESEVSTPVHPSASMVGLDAGVAKLATLSDGTVFEPVNSFQKNQKKLARLQRQLSRKVKFSNNWQKQKRKIQRLHSCIANIRRDYLHKVTTAVSKNHAMIVIEDLKVSNMSKSAAGTVSQPGRNVRAKSGLNRSILDQGWYEMRRQLAYKQLWRGGQVLAVPPAYTSQRCAYCGHTAKENRLSQSKFRCQVCGYTANADVNGARNILAAGHAVLACGEMVQSGRPLKQEPTEMIQATALEHHHHHH
soluble on expression in E. coli: not soluble

MGSDKIHHHHHHWARTVWPRLYWFVEGKLYRWLQSFIAYWGYTAGYDVYEYGDDVTTYYRDERVLMMCNHQSTADVPTLMTVLQNKGVASRKTLWLMDVMFRWTPFGIIGNNHGDYFIQQGKATRDKELIRLKKHLHDVFWDRDRRWVILFPEGGFYYKRVESSQSYGKKNGFPHLLYTTLPRMGAVQAILEEVGPRTEDSDEPRERSNSKLKLLQDTVGAIREKKYVKGE
soluble on expression in E. coli: not soluble

QWGSMRMPSDRISSGMAFSSVAQEAGFQNDDIILAVDGRPVDALASGFMRSVIQARQVEVLRQGRREIVHVPHDMMKRVLKANSGFMSIQVPFVIDSVMPQGTAYACQLKAGDSITAVNGKLMPDASDVIGAIRSHAGDTIALSIARAGEELTITLPVDTGGLIGVSLRPLDAIYTIDHIRYSLFEAIPAGIAQGMGTMRSYVSDMKYVFTKEGAGQIGGFGTLGSLFPASWNWPQFWAMTALLS
soluble on expression in E. coli: not soluble

DAGQANDDALRVALQFKPVADFSPYSDDAVLNLRMGAVETLVTLDEDGKPKPVLAEKWEMKDDRTAVLTLRKDVSFHDGSKLTGEVVKNALDHALSATTRPKGLGKADLKVEATGESEVTITAPEADPILVQRLTDPGAAILSKDAYAGENPDPFNHGTGPFKLVKKESDGSVSAEAFADYWNGTPETSALKVSFIEDGAARANAFRAGDFDVIKGVPVVALPELSDAHVTDVHLPRATLLHLNAEKGVFADAKLRTAVAGAIKTDAIVDKIYEGKANKTEGSLFNLDAQWAQKAKPLAGAPADATIGKGKTVRLATWDSRAELPETANLIADQLRALGFNVDITVADYASLENRLLDGSFDAVIGSRSYMIGAGDPVAFLDTDFTCDGSYNLSRLCDPEIDKKIAAAKSEKDLDTRHKD
soluble on expression in E. coli: not soluble

MAHHHHHHMRTAVGSGAGASAAARAIPTAVPLTVADIDALARRDGVVSSDAVVSQQGTVASSRSVAELQAVVQSLQQENAELRERLERDRRQMLRSAMDVRDLHASQKQIRQRDLDRIEWLYCDNQRLRKILEMQGSAQELAGVLSPQPPAAAPATAHRPSLEGLRPLPEVPVELNAIEEEMPALEAEVVHLRGALVLKTQHLDDLWGHAERAEGYVQDLLQKLEHVQGIVREESDSCARRSKHLESTDQPLEDIVSFVSLRDHSSATQLTGPSSTTPFPFATVGRCEHIKRAAAVHGG
soluble on expression in E. coli: not soluble

MKKLLIMLIRFYQRYISPLKPPTCRFTPTCSNYFIQALEKHGLLKGTFLGLRRILRCNPLSKGGYDPVPEEFSFKPRRRWS
soluble on expression in E. coli: soluble

MDGELRALLNAVLERLDVQGVYIEQMRMDIVKLQGSVKQLEDKVDRIQSDVEAMKKDMDAMKKDMDAMKKDMLGVKKDVAALKEGQVRQEKIMERLAIRSIEQEAEIDELRKEISA
soluble on expression in E. coli: not soluble

MAHHHHHHMNNTNIVTFSPKLKYSINDVVHRDREVKEYHLQIDREASDILFFCTIKPKQVSELLEGEVKINLKREVGEQYSVASEDGTHVCDFSKGNLNISPSAGFNYKHDRSVSCIYLVIPNKLFLIKLPKLNIVTEQFLPNLVSCLSEYSFINFNLKHVEESDDSISLHLSFGDFKKNFNVSCAFDLSEYAVEPCSLGKKGIVTFYFNA
soluble on expression in E. coli: not soluble

MHIQRKSTMSKCSADETPVCCCMDVGTIMDNSDCTASYSRVFANRAEAEQTLAALTEKARSVESEPCKITPTFTEESDGVRLDIDFTFACEAEMLIFQLGLR
soluble on expression in E. coli: not soluble

MGSDKIHHHHHHMDAFEKVRTRLETQPQEEYEVVNAEIKHGGFVYYQEGCCLVRSKDEEADSDNYEVLFNLEELKLDQPFIDCIRVAPDEKYVAAKIRTEDSETSTLVVVKLSDQPVMEASFPNVSSFEWVKDEEDEDVLFYTFQRNLRCHDVYRATFGDNKRNERFYTEKDPSYFVFLYLTKDSRFLTLNIMNKTTSEVWLIDGLSPWDPPVLIQKRIHGMLYYVEHRDDELYILTNVGEPTEFKLMRTAADAPAIMNWDLFFTMKRNTKVVDLDMFKDHCVLFLKHSNLLYVNVIGLADDSVRSLKLPPWACGFIMDTNSDPKNCPFQLCSPIRPPKYYTYKFAEGKLFEETGHEDPITKTSRVLRIEAKSKDGKLVPMTVFHKTDSEDLQRKPLLVHVYGAYGMDLKMNFRPEKRVLVDDGWILAYCHVRGGGELGLQWHADGRLTKKLNGLADLVACIKTLHSQGFSQPSLTTLSAFSAGGVLVGALCNSKPELLRAVTLEAPFLDVLNTMLDTTLPLTLEELEEWGNPSSDEKHKNYIKRYCPCQNIKPQHYPSVHITAYENDERVPLKGIVNYTEKLKEAVAEHTKGAGEGYQPPNIILDIQPGGNHVIEDSHKKITTQMKFLYEELGLDSTDAFEALKKYLKF
soluble on expression in E. coli: soluble

MIQKINILDSSQSGVKNGADSEAVLAALIEHLELINPSGRLSQNTRSAMLQLREEEWSEFFFWLLNSLECLDYVIINLTPESKKTLMSEHRNNIQVAIDALYSQRRRKSPGDESETLTRRNDAIFGNHVWQTFAQYFPPGLEKPSV
soluble on expression in E. coli: not soluble

MDKEQRNIVVFNASKRELFTSSSGYKSLQKKLRAQWKIQSIKEELTLEKLQGVKLWITAGPREKFTAAELEVLKQYLDSGGALLVMIGEGGELKYDTNINFLLEEFGIMVNNDAVIRNVYYKYFHPKEALVSNGVLNREISRAAGKVVTGVIDEENTGNNSQALTFVYPYGATLNVMKPAVAILSTGSVCFPLNRPVLAFHHSKNAGKLAVLGSCHMFSDQYLDKEENSRIMDVVFQWLTTDSIHLNQIDAEDPEITDYMMLPDTGSLSERLRVCLQEGDENPRDFTSLFDMSLLKLHTNTLPSVLDAYKQLNVKHEALQLITPQFETPLPPLQPAVFQPAFRDLPPPMLDLFDLDETFSSEKVRLAQLSNKCTDDDLEFYVRKCGDILGVTGNLDKDKRDAKHILEHVFFQVVEFKKLNEEHDVDTAEARFSMY
soluble on expression in E. coli: soluble

KTNRRSETNIIRFNNSIFSAAVDYLNEMYNKQLGSICEPLINAYADVEQESPRNKQQGYVKVEFLEPDEEHDYTEQTLISLGMEVEHLLQSGVKLNDIAILVRKNKSIPRIADYFDKQLNYKIVSDEAFRLDASLAICMMLDALRYLSDPENRIVKAQLATNYQLQILHSEYDLNSLLLHKAEELFPPAFLERMAELRLMPLYELLEELFSLFELHRIEQQDAYLFAFFDAVTDYLQSHSSDPDSFIRYWNETLSGKTIPSGEVEGIRIFSIHKSKGLEFHTVLLPFCDWKLENETNNQLVWCVPQEAPFNELDIVPVNYSSAMAESVYRTDYLHERLQLWVDNLNLLYVAFTRAGKNLIIWSRKGQRNTMA
soluble on expression in E. coli: not soluble

MSLDVDLAPPGPLAAGGLRVTALGGISEIGRNMTVFEHLGRLLIIDCGVMFPTHDEPGVDLILPDLRHIEDRLDDIEALVLTHAHEDHIGGIPYLLKLRPDIPVVGSKFTLALVAAKCREHRLKPVFVEVSEGHKSTHGVFECEYFAVNHSIPDALAIAVHTGAGTVLHTGDIKLDQLPLDGRPTDLPGMSRLGDAGVDLFLCDSTNAELPGVGPSESEVGPTLHRLIRGAEGRVIVACFASNVDRVQQIIDAAVALGRRVSFVGRSMVRNMGIARELGFLRVADADVIDIGAAELMPPERVVLITTGTQGEPMSALSRMSRGEHRSITLTAGDLVVLASSLIPGNEEAVYGVIDELAKIGARVVTNAQARVHVSGHAYAGELLFLYNGVRPRHVMPVHGTWRMLRANSKLAARTGVPEESILLAENGVSVDLVAGRASISGAVPVGKMFVDGLVDGDVGDITLGERLILSSGFVAVTVVVQRGTGRPVAPPHLHSRGFSEDPKALEPAVRRVEEELEALVAENITDPSRIAQGVRRTVGKWVGETYRRQPMIVPTVIEVEGHHHHHH
soluble on expression in E. coli: soluble

MGSDKIHHHHHHMPKNWTLKVDQYINANSNCIIATAHVDSFPTDLPLEPNIREPNLKSSTYKQIFDSLTTEPEKFFQRNNGIVLCVNKVKPKNRTELELEILQANEGGNDGVINGGHSVSAFEQARKFKYDLTLARVKVTIHIGLSEDEAKDIALASNTSAPVDARSKVNARGDYQFIKQFLAQLEREEDTKFRIAYYQNQSGAPKSPQCNVNHLIKLMNCLDRNKYNPNTNKSKGKHPPVSNNPSLTDAERERLSRLLPLLPKALWIEQRFFKTIEAYITNPKKKGVDLASIDARKNTLLPDSRYSFGFSAPADIAMPIVAAYRVFLDENYNWLIPFDDFAEDFLQHLWNNYYRKYLVSEKFSGNTVGSKICRNPVIWDSLYVSAQSYLNQQLLKMVSSSKNKREELKLAN
soluble on expression in E. coli: not soluble

MRIFLDANVIADWILLKNKNQDASDPLLTERYRHMAESFKLVEEILKLKEKVSGTSQMAIAEVFGVIYDDAINMKLFREAVPASSWYWFSIRERKALSEDSQQLFLMEPHTSPQGI
soluble on expression in E. coli: not soluble

MRFFVSGMPGVGKTTLAKRIADEVRREGFKVGGIITEEIREGGKRTGFRVIALDTGEIGRLAYVGYGYPRLGKYVIDVEGFERVAIPALSRALRGADLIVIDEIGPMEFKSNEFLKALGLVLKSEKHLLATVHRRLVDRYRPLGEYYWLTPENRNAVFSEILGRIKGLLKEKLEHHHHHH
soluble on expression in E. coli: soluble

MSRISSMAYKWKQPPPPINDDSRHRSQSNSRLFDRIYGQMHRGNKAFEHTTSYDESISGFMRRRFAGNGERALPLRYGTNPHQKDDAELYIVEDEMPIKVLNGSPGYINILDGLNGWQLVKELSDATKMPAAASFKHVSPAGAAVGLPLNETEAACCMVSDLPIDTKKPSLAAAYARARGADRMSSFGDFIALSEKCDELTAKIINREVSDGVVAPDFDPAALSLLAKKKNGNYCVLKINPNYLPSETEERTVFGLRLRQKRNNAVINAETFNNVVGSANELNKQAIDDLIVATIALKYAQSNSVCFAHRGQVIGMGAGQQSRIHCTRLAGDKAMNWWLRQHPTVLSLPWKNAIKRSEKSNAIDVLCSGVLGSEVCNFKFNRPLSYFSLVTNL
soluble on expression in E. coli: not soluble

MYVSSPTLTDKVSKMICQDILTGELKPGQKLVVAELKEKYNVGASPIREALVQLSWSKYVKLAPQKGCWVAPVCKHELNDLYESLRMTASFLLKKAIMTGDENWELDVLTSYHKLSRVNLDQGFCWREWEERHYHFLEALLEGANSHNLFTFFRDILNQIKRYHYFAMQVLGTNNQGHCNIDEQEMIMKLSLSKNSDDAVQFLDRYLLKSLQCVETAIDNPL
soluble on expression in E. coli: soluble

MSLSIQSGEILETVKMVADQNFDVRTITIGIDLHDCISSDINVLNQNIYNKITTVGKDLVTTAKYLSAKYGVPIVNQRISVTPIAQIAAATHADSYVSVAQTLDKAAKAIGVSFIGGFSALVQKGMSPSDEVLIRSIPEAMKTTDIVCSSINIGSTRAGINMDAVKLAGETVKRTAEITPEGFGCAKIVVFCNAVEDNPFMAGAFHGSGEADAVINVGVSGPGVVKAALENSDATTLTEVAEVVKKTAFKITRVGELIGREASKMLNIPFGILDLSLAPTPAVGDSVARILEEMGLSVCGTHGTTAALALLNDAVKKGGMMASSAVGGLSGAFIPVSEDEGMIAAAEAGVLTLDKLEAMTAVCSVGLDMIAVPGDTPAHTISGIIADEAAIGMINSKTTAVRIIPVTGKTVGDSVEFGGLLGYAPVMPVKEGSCEVFVNRGGRIPAPVQSMKNEGHHHHHH
soluble on expression in E. coli: soluble
